Results reported in patent US20110263827A1 (AbbVie / Abbott, published 2011).

Tests used:
ErbB3 = molecular target: T1, ErbB3 (UniProt P21860 20-643, limits assumed, biotinylated); assay: direct bind ELISA, C-term VD;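 note: ELISA with antibody or DVD-Ig preparations applied to target antigen-coated plates for 1 h at room temperature, TMB colour development, absorbance read at 450 nm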
T1 construct: ELISA antigen

EGFR = molecular target: T2, EGFR (UniProt P00533 25-645, limits assumed, biotinylated); assay: direct bind ELISA, N-term VD;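 note: antibody or DVD-Ig preparations bound to immobilized target antigen on ELISA plates, 1 h at room temperature, TMB detection read as absorbance at 450 nm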
T2 construct: ELISA antigen; construct not described

B1: DVD769 (bispecific antibody)
VH: QVQLQESGPGLVKPSQTLSLTCTVSGYSISSDFAWNWIRQPPGKGLEWMGYISYSGNTRYQPSLKSRITISRDTSKNQFFLKLNSVTAADTATYYCVTAGRGFPYWGQGTLVTVSSASTKGPSVFPLAPQVQLQQWGAGLLKPSETLSLTCAVYGGSFSGYYWSWIRQPPGKGLEWIGEINHSGSTNYNPSLKSRVTISVETSKNQFSLKLSSVTAADTAVYYCARDKWTWYFDLWGRGTLVTVSS
VL: DIQMTQSPSSMSVSVGDRVTITCHSSQDINSNIGWLQQKPGKSFKGLIYHGTNLDDGVPSRFSGSGSGTDYTLTISSLQPEDFATYYCVQYAQFPWTFGGGTKLEIKRTVAAPSVFIFPPDIEMTQSPDSLAVSLGERATINCRSSQSVLYSSSNRNYLAWYQQNPGQPPKLLIYWASTRESGVPDRFSGSGSGTDFTLTISSLQAEDVAVYYCQQYYSTPRTFGQGTKVEIKR
notes: DVD-Ig; HC L, LC L; variable parts only
An EC50 (ErbB3) of 8.23 nM and an EC50 (EGFR) of 3.59 nM were found for B1 in this work.

B2: DVD771 (bispecific antibody)
VH: QVQLQESGPGLVKPSQTLSLTCTVSGYSISSDFAWNWIRQPPGKGLEWMGYISYSGNTRYQPSLKSRITISRDTSKNQFFLKLNSVTAADTATYYCVTAGRGFPYWGQGTLVTVSSASTKGPSVFPLAPEVQLVESGGGLVQPGGSLRLSCAASGFTFSIYSMNWVRQAPGKGLEWVSYISSSSSTIYYADSVKGRFTISRDNAKNSLYLQMNSLRDEDTAVYYCARDRGDFDAFDIWGQGTMVTVSS
VL: DIQMTQSPSSMSVSVGDRVTITCHSSQDINSNIGWLQQKPGKSFKGLIYHGTNLDDGVPSRFSGSGSGTDYTLTISSLQPEDFATYYCVQYAQFPWTFGGGTKLEIKRTVAAPSVFIFPPDIQMTQSPSSLSASVGDRVTITCQASQDITNYLNWYQQKPGKAPKLLIYDASNLETGVPSRFSGSGSGTDFTFTISSLQPEDIATYNCQQCENFPITFGQGTRLEIKR
notes: as for B1
An EC50 (ErbB3) of 1.38 nM and an EC50 (EGFR) of 4.43 nM were found for B2 in this work.

B3: DVD327 (bispecific antibody)
VH: QVQLQESGPGLVKPSQTLSLTCTVSGYSISSDFAWNWIRQPPGKGLEWMGYISYSGNTRYQPSLKSRITISRDTSKNQFFLKLNSVTAADTATYYCVTAGRGFPYWGQGTLVTVSSASTKGPQVQLQQWGAGLLKPSETLSLTCAVYGGSFSGYYWSWIRQPPGKGLEWIGEINHSGSTNYNPSLKSRVTISVETSKNQFSLKLSSVTAADTAVYYCARDKWTWYFDLWGRGTLVTVSS
VL: DIQMTQSPSSMSVSVGDRVTITCHSSQDINSNIGWLQQKPGKSFKGLIYHGTNLDDGVPSRFSGSGSGTDYTLTISSLQPEDFATYYCVQYAQFPWTFGGGTKLEIKRTVAAPDIEMTQSPDSLAVSLGERATINCRSSQSVLYSSSNRNYLAWYQQNPGQPPKLLIYWASTRESGVPDRFSGSGSGTDFTLTISSLQAEDVAVYYCQQYYSTPRTFGQGTKVEIKR
notes: DVD-Ig; HC S, LC S; variable parts only
An EC50 (ErbB3) of 485 nM and an EC50 (EGFR) of 3.98 nM were found for B3 in this work.

B4: DVD787 (bispecific antibody)
VH: QVQLQESGPGLVKPSQTLSLTCTVSGYSISSDFAWNWIRQPPGKGLEWMGYISYSGNTRYQPSLKSRITISRDTSKNQFFLKLNSVTAADTATYYCVTAGRGFPYWGQGTLVTVSSASTKGPSVFPLAPEVQLLESGGGLVQPGGSLRLSCAASGFTFSHYVMAWVRQAPGKGLEWVSSISSSGGWTLYADSVKGRFTISRDNSKNTLYLQMNSLRAEDTAVYYCTRGLKMATIFDYWGQGTLVTVSS
VL: DIQMTQSPSSMSVSVGDRVTITCHSSQDINSNIGWLQQKPGKSFKGLIYHGTNLDDGVPSRFSGSGSGTDYTLTISSLQPEDFATYYCVQYAQFPWTFGGGTKLEIKRTVAAPSVFIFPPQSALTQPASVSGSPGQSITISCTGTSSDVGSYNVVSWYQQHPGKAPKLIIYEVSQRPSGVSNRFSGSKSGNTASLTISGLQTEDEADYYCCSYAGSSIFVIFGGGTKVTVLG
notes: as for B1
An EC50 (ErbB3) of 14.4 nM and an EC50 (EGFR) of 3.78 nM were found for B4 in this work.

B5: DVD799 (bispecific antibody)
VH: QVQLQESGPGLVKPSQTLSLTCTVSGYSISSDFAWNWIRQPPGKGLEWMGYISYSGNTRYQPSLKSRITISRDTSKNQFFLKLNSVTAADTATYYCVTAGRGFPYWGQGTLVTVSSASTKGPSVFPLAPQVQLQQWGAGLLKPSETLSLTCAVYGGSFSGYYWSWIRQPPGKGLEWIGEINHSGSTNYNPSLKSRVTISVETSKNQFSLKLSSVTAADTAVYYCARDKWTWYFDLWGRGTLVTVSS
VL: DIQMTQSPSSMSVSVGDRVTITCHSSQDINSNIGWLQQKPGKSFKGLIYHGTNLDDGVPSRFSGSGSGTDYTLTISSLQPEDFATYYCVQYAQFPWTFGGGTKLEIKRTVAAPDIEMTQSPDSLAVSLGERATINCRSSQSVLYSSSNRNYLAWYQQNPGQPPKLLIYWASTRESGVPDRFSGSGSGTDFTLTISSLQAEDVAVYYCQQYYSTPRTFGQGTKVEIKR
notes: DVD-Ig; HC L, LC S; variable parts only
An EC50 (ErbB3) of 20 nM and an EC50 (EGFR) of 5.76 nM were found for B5 in this work.

B6: DVD801 (bispecific antibody)
VH: QVQLQESGPGLVKPSQTLSLTCTVSGYSISSDFAWNWIRQPPGKGLEWMGYISYSGNTRYQPSLKSRITISRDTSKNQFFLKLNSVTAADTATYYCVTAGRGFPYWGQGTLVTVSSASTKGPSVFPLAPEVQLVESGGGLVQPGGSLRLSCAASGFTFSIYSMNWVRQAPGKGLEWVSYISSSSSTIYYADSVKGRFTISRDNAKNSLYLQMNSLRDEDTAVYYCARDRGDFDAFDIWGQGTMVTVSS
VL: DIQMTQSPSSMSVSVGDRVTITCHSSQDINSNIGWLQQKPGKSFKGLIYHGTNLDDGVPSRFSGSGSGTDYTLTISSLQPEDFATYYCVQYAQFPWTFGGGTKLEIKRTVAAPDIQMTQSPSSLSASVGDRVTITCQASQDITNYLNWYQQKPGKAPKLLIYDASNLETGVPSRFSGSGSGTDFTFTISSLQPEDIATYNCQQCENFPITFGQGTRLEIKR
notes: as for B5
An EC50 (ErbB3) of 3.28 nM and an EC50 (EGFR) of 3.91 nM were found for B6 in this work.

B7: DVD329 (bispecific antibody)
VH: QVQLQESGPGLVKPSQTLSLTCTVSGYSISSDFAWNWIRQPPGKGLEWMGYISYSGNTRYQPSLKSRITISRDTSKNQFFLKLNSVTAADTATYYCVTAGRGFPYWGQGTLVTVSSASTKGPEVQLVESGGGLVQPGGSLRLSCAASGFTFSIYSMNWVRQAPGKGLEWVSYISSSSSTIYYADSVKGRFTISRDNAKNSLYLQMNSLRDEDTAVYYCARDRGDFDAFDIWGQGTMVTVSS
VL: DIQMTQSPSSMSVSVGDRVTITCHSSQDINSNIGWLQQKPGKSFKGLIYHGTNLDDGVPSRFSGSGSGTDYTLTISSLQPEDFATYYCVQYAQFPWTFGGGTKLEIKRTVAAPDIQMTQSPSSLSASVGDRVTITCQASQDITNYLNWYQQKPGKAPKLLIYDASNLETGVPSRFSGSGSGTDFTFTISSLQPEDIATYNCQQCENFPITFGQGTRLEIKR
notes: as for B3
An EC50 (ErbB3) of 481 nM and an EC50 (EGFR) of 3.82 nM were found for B7 in this work.

B8: DVD817 (bispecific antibody)
VH: QVQLQESGPGLVKPSQTLSLTCTVSGYSISSDFAWNWIRQPPGKGLEWMGYISYSGNTRYQPSLKSRITISRDTSKNQFFLKLNSVTAADTATYYCVTAGRGFPYWGQGTLVTVSSASTKGPSVFPLAPEVQLLESGGGLVQPGGSLRLSCAASGFTFSHYVMAWVRQAPGKGLEWVSSISSSGGWTLYADSVKGRFTISRDNSKNTLYLQMNSLRAEDTAVYYCTRGLKMATIFDYWGQGTLVTVSS
VL: DIQMTQSPSSMSVSVGDRVTITCHSSQDINSNIGWLQQKPGKSFKGLIYHGTNLDDGVPSRFSGSGSGTDYTLTISSLQPEDFATYYCVQYAQFPWTFGGGTKLEIKRTVAAPQSALTQPASVSGSPGQSITISCTGTSSDVGSYNVVSWYQQHPGKAPKLIIYEVSQRPSGVSNRFSGSKSGNTASLTISGLQTEDEADYYCCSYAGSSIFVIFGGGTKVTVLG
notes: as for B5
An EC50 (ErbB3) of 18.8 nM and an EC50 (EGFR) of 5.33 nM were found for B8 in this work.

B9: DVD829 (bispecific antibody)
VH: QVQLQESGPGLVKPSQTLSLTCTVSGYSISSDFAWNWIRQPPGKGLEWMGYISYSGNTRYQPSLKSRITISRDTSKNQFFLKLNSVTAADTATYYCVTAGRGFPYWGQGTLVTVSSASTKGPQVQLQQWGAGLLKPSETLSLTCAVYGGSFSGYYWSWIRQPPGKGLEWIGEINHSGSTNYNPSLKSRVTISVETSKNQFSLKLSSVTAADTAVYYCARDKWTWYFDLWGRGTLVTVSS
VL: DIQMTQSPSSMSVSVGDRVTITCHSSQDINSNIGWLQQKPGKSFKGLIYHGTNLDDGVPSRFSGSGSGTDYTLTISSLQPEDFATYYCVQYAQFPWTFGGGTKLEIKRTVAAPSVFIFPPDIEMTQSPDSLAVSLGERATINCRSSQSVLYSSSNRNYLAWYQQNPGQPPKLLIYWASTRESGVPDRFSGSGSGTDFTLTISSLQAEDVAVYYCQQYYSTPRTFGQGTKVEIKR
notes: DVD-Ig; HC S, LC L; variable parts only
An EC50 (ErbB3) of 41.4 nM and an EC50 (EGFR) of 3.81 nM were found for B9 in this work.

B10: DVD831 (bispecific antibody)
VH: QVQLQESGPGLVKPSQTLSLTCTVSGYSISSDFAWNWIRQPPGKGLEWMGYISYSGNTRYQPSLKSRITISRDTSKNQFFLKLNSVTAADTATYYCVTAGRGFPYWGQGTLVTVSSASTKGPEVQLVESGGGLVQPGGSLRLSCAASGFTFSIYSMNWVRQAPGKGLEWVSYISSSSSTIYYADSVKGRFTISRDNAKNSLYLQMNSLRDEDTAVYYCARDRGDFDAFDIWGQGTMVTVSS
VL: DIQMTQSPSSMSVSVGDRVTITCHSSQDINSNIGWLQQKPGKSFKGLIYHGTNLDDGVPSRFSGSGSGTDYTLTISSLQPEDFATYYCVQYAQFPWTFGGGTKLEIKRTVAAPSVFIFPPDIQMTQSPSSLSASVGDRVTITCQASQDITNYLNWYQQKPGKAPKLLIYDASNLETGVPSRFSGSGSGTDFTFTISSLQPEDIATYNCQQCENFPITFGQGTRLEIKR
notes: as for B9
An EC50 (ErbB3) of 1.42 nM and an EC50 (EGFR) of 4.6 nM were found for B10 in this work.

B11: DVD847 (bispecific antibody)
VH: QVQLQESGPGLVKPSQTLSLTCTVSGYSISSDFAWNWIRQPPGKGLEWMGYISYSGNTRYQPSLKSRITISRDTSKNQFFLKLNSVTAADTATYYCVTAGRGFPYWGQGTLVTVSSASTKGPEVQLLESGGGLVQPGGSLRLSCAASGFTFSHYVMAWVRQAPGKGLEWVSSISSSGGWTLYADSVKGRFTISRDNSKNTLYLQMNSLRAEDTAVYYCTRGLKMATIFDYWGQGTLVTVSS
VL: DIQMTQSPSSMSVSVGDRVTITCHSSQDINSNIGWLQQKPGKSFKGLIYHGTNLDDGVPSRFSGSGSGTDYTLTISSLQPEDFATYYCVQYAQFPWTFGGGTKLEIKRTVAAPSVFIFPPQSALTQPASVSGSPGQSITISCTGTSSDVGSYNVVSWYQQHPGKAPKLIIYEVSQRPSGVSNRFSGSKSGNTASLTISGLQTEDEADYYCCSYAGSSIFVIFGGGTKVTVLG
notes: as for B9
An EC50 (ErbB3) of 12.9 nM and an EC50 (EGFR) of 2.92 nM were found for B11 in this work.
